The target in experiment [1] is human CD3 (human, UniProt P07766 23-126). Description: method not stated in the legend (Figure 142).
The target of experiment [2] is T1, cyno CD3 (cyno, UniProt Q95LI5 22-117).
T1 construct: also called cynomolgus monkey CD3
T1 sequence (looked up): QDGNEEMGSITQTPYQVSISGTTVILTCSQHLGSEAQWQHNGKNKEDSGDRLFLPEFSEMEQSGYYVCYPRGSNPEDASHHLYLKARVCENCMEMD
Briefly: method not stated in the legend (Figure 143).

Among the data in patent EP4059514A1 (Xencor, Inc., dated 2022) are Kd values, retold here.

A word on the Kd: it is the free concentration of one partner at which half of the binding sites on the other are occupied at equilibrium, for simple one-to-one binding. A low value points to a tighter complex.

human CD3, sequence (P07766 23-126): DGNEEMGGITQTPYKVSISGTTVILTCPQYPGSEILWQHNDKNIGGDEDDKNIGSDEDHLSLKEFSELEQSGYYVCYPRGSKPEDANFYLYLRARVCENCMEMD

B1: XENP14045 (anti-CD123 x anti-CD3) bispecific (bispecific antibody)
chain 1: QVQLQQSGAEVKKPGASVKVSCKASGYTFTDYYMKWVKQSHGKSLEWMGDIIPSNGATFYNQKFKGKATLTVDRSTSTAYMELSSLRSEDTAVYYCARSHLLRASWFAYWGQGTLVTVSSASTKGPSVFPLAPSSKSTSGGTAALGCLVKDYFPEPVTVSWNSGALTSGVHTFPAVLQSSGLYSLSSVVTVPSSSLGTQTYICNVNHKPSDTKVDKKVEPKSCDKTHTCPPCPAPPVAGPSVFLFPPKPKDTLMISRTPEVTCVVVDVKHEDPEVKFNWYVDGVEVHNAKTKPREEEYNSTYRVVSVLTVLHQDWLNGKEYKCKVSNKALPAPIEKTISKAKGQPREPQVYTLPPSREEMTKNQVSLTCDVSGFYPSDIAVEWESDGQPENNYKTTPPVLDSDGSFFLYSKLTVDKSRWEQGDVFSCSVMHEALHNHYTQKSLSLSPGK
chain 2: not shown
chain 3: not shown
As for B1, the values for the equilibrium dissociation constant (Kd) in experiment [1] and in experiment [2] were 8.1 nM and 5.7 nM, respectively.
